From the nanobody polyreactivity screen of Harvey et al. (2022)

Assay: yeast display, Sf9 membrane polyspecificity reagent, FACS + sequencing; frameworks hold sequencing errors
Method in brief: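 Polyreactivity labels are assigned by the sorting gate from which each nanobody was recovered. The gates were low and high (top ~1%), set on anti-HA fluorescence for expression and streptavidin fluorescence for reagent binding. Before sorting, galactose-induced (36–48 hours) yeast display cells were stained for 1 hour at 4 °C with 10% biotinylated, detergent-solubilized Sf9 membrane reagent.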

Row | Sequence | polyreactivity (PSR sort gate)
1 | QVQLVESGGGLVQAGGSLRLSCAASGRTFGPNGMGWYRQAPGKERELVAAITRRGGSTYYADSVKGRFTISRDNEKNTVYLQMNSLKPEDTAVYYCAAYSSWGGFDYWGQGTQVTVSS | low polyreactivity
2 | QVQLVESGGGLVQAGGSLRLSCAASGRIFDDYAMGWNRQAPGKERELVAAISSSVGNTYYADSVKGRFTISRDNAKYTVYLQMNSLKPEDTAVYYCADYSYVRSSYEVEYDYWGQATQVTVSS | low polyreactivity
3 | QVQLVESGGGLVQAGGSLRLSCAASGRTFLRNAMRWYRQAPGKERELVATISIGGRTYYADSVKGRFTISRDNAKNTVYLQMNSLKPEDTAVYYCNASTSILSLDWEYGSWGQGTQVTVSS | low polyreactivity
4 | QEQLQESGGGQVQAGGSLLLSCAASGNIIRYYYMGWYRQAPGKERELVAAITYGTSTNYADSVKGRFTISRDNAKNTVYLQMNSLKPEDTAVYYCAVDVNYGDPLDNWGQGTQVTVSS | high polyreactivity
5 | QVQLVESGGGLVQAGGSLRLSCAASGRIFPSYAMGWYRQAPGKERELVAAISYSGASTYYADSVKGRFTISRDNAKNTVYLQMNSLKPEDTAVYYCYQLVEEDYWGLGTQVTVSS | low polyreactivity
6 | QVQLVESGGGLVQAGGSLRLSCAASGLIFVSYAMGWYRQAPGKERELVASITDSDSSTYYADSVKGRFTISRDNAKNTVYLQMNSLKPEDTAVYYCATGGRTEIWYPTLDYWGQGTQVTVSS | low polyreactivity
7 | QVQLVESGGGLVQAGGSLRLSCAASGLTLSYNAMGWYRQAPGKERELVAAIRSGGSTNYADSVKGRFTISRDNAKNTVYLQMNSLKPVDTAVYYCAARFRYLPYRYGRYQSGYEYWGQGTQVTVSS | high polyreactivity
8 | QVQLVESGGGIVQAGGSLRLSCAASGRNFSRYAMGWYRQAPGKERELVAVISRSGADTYYADSVKGRFTISRDNAKNTVYLQMNSLKPEDTAVYYCNAYSARRPHPMGYDYWGEGTQVTVSS | high polyreactivity
9 | QVHLVESVGGLVQAGGSLRLSSAASGIIFRSNAMGWYRQAPGKERELVAAISSRGSSTNYADSVKGRFTISRDNAKNTVYLQMNSLNPEDTAVYYCNARGSRVDQTESEYWGQGTQVTVSS | high polyreactivity
10 | QVQLVESRGVLVQAGGSLRLSCAASGSNFYVYAMGWYRPAPGKERELVAGISWSADSTYYADSVKGRFTISRDNAKYTVYLQMNSLKPEDSAVYYCATDRYPTRRYDYWGQGTQVTVSS | low polyreactivity
11 | QVQLVESGGGLDQAGGSLRLSSAASGSIFSGYAMGWYRQAPGKERELVAAISSSGTRTYYADSVKGRFTISRDNAKNTVYLQMNSLKPEETAVYYCNAATSKVQFSGYGYWGQGTQVTVSS | high polyreactivity
12 | QVQLVESGGGLVQAGGCLRLSCAASGYIFRVYDMGWYRQAPGKERELVAAISGSGGRTYYADSVKGRFTISRDNAKNTVYLQMISLKPEDTAVYDCSAYRVSEYDYWGQGTQVTVSS | high polyreactivity
13 | QVQRVESGGGLVQAGGSRRLSCAASGSIFSAYAMGWYRQAPGKEREFVAAITRRGGNTYYADSVKGRFTISRDNAKNTVYLQMNSLKPDDTAVYYCAADAGGGPFDYSGQGTQVTVSS | low polyreactivity
14 | QVQLVESGGGLVQAGGSLRLSCAASGSIFGVNAMGWYRQAPGKERELVATIRQRGTSTYNADSVKGRFTISRDTAKNTVYLQMNSLKPEDTAVYYCAARGGVLKGYYYWGQGTQVTVSS | high polyreactivity
15 | QVQLVESGGGLVQAGGSLRLSCAASGRIFATNAMGLYRPAPGKERELVATITRSAGRTYYADSVKGRFTISRDNAKNTVYLQMNSLKPEDTAVYYCAASYWDTEPGYREYVYWGQGTQVTVSS | low polyreactivity
16 | QVQLVESGGGLVQAGGSRRLSCAASGLIFVHYTMGWYRQATGKERELVAAITSSGGSTYYAYSVKGRFTISRDNAKNTVYLEMNSMKPEDTAVYYCATKSYSPTRTRFYYWGQGTQVTVSS | high polyreactivity
17 | QVQLVESGGGLVQAGGSLRLSCAASGSIYWLYAMGWYRQAPGKERELVAAIDSGDSTKNADSVKGRFTISRDNAKNTVYLQMNSLKPEDTAVYYCNASRRYHVRAPYDYWGQGTHVTVSS | low polyreactivity
18 | QVQLVESGGGLVQAGGSLRLSCAASGFIFRGYAMGWYRQAPGKERELVAAINYSGGSTYYADSVKGRFTISRDNAKNTVYLQMNSLKPEDTAVYYCAAGKRGDDDYWGQGTQVTVSS | high polyreactivity
19 | QVQLVESGGGLVQAGGSLRLSCAASGITFVRNAMGWYRQAPGKERELVAAISGRGGITYYADSVKGRFTISRDNAKNTVYLQMNSLKPEDTAVYYCAASSAGSSYNYWGQGTQVTVSS | high polyreactivity
20 | QVQLVESVGGLVQAGGSLRLSSAASGFTFVPYAMGWYRQAPGKERETNADSVKGRFTISRDNAKNTVYLQMNSLKPEDTAVYYCAADLGRGIYDYWGQGTQVTVSS | low polyreactivity
21 | QVQLVESGGGLVQAGGSLRLSCAASGRIFRRYAMGWYRQAPGKEREFVAAITKSGGSTYYADSVKGRFTISRDNAKNTVYLQMNSLKPEDTAVYDCNAYVIRALGYGGYDYWGQGTQVTVSS | high polyreactivity
22 | QVKLQESGGGLVQAGGSLRLSCAASGYIFLHYYMGWYRQAPGKEREFVAGITSGTNTNYADSVKGRFTIRDNAKNTVYLQMNSLKPEDTAVCYCAVTYPYWGDYTYWGQGTQVTVSS | low polyreactivity

Row | Sequence | polyreactivity (PSR sort gate)
23 | QVQLVESGGGLVQAGGSLRLSCAASGIISSVYAMGWYRQAPGKERELVAAISGSGGSTYYADSVKGRFTISRDNAKNTVYLQMNSLKPEDTAVYYCAIGYQYQGNSYGYWGQGTQVNVSS | low polyreactivity
24 | QVQLVESGGGLVQAGGSLRLSCAASGFIFYEYAMGWYRQAPGKERELVAAITSGGSTDYADSVKGRFTISRDNANNTVYLQMNSLKPEDTAVYYCNADLFTGYYWYNYWGQGTQVTVSS | low polyreactivity
25 | QVQLVESGGGLVQAGGSLRLSCAASGFISRAYAMGWYRQAPGKERELVAAISVRVGSTYYADSVKGRFTISRDNAKNTVYLQMNSLKPEDTAVYYCAALRPWPRYDYWGQGTQVTVSS | high polyreactivity
26 | QVQLVESGGGLVQAGGSLRLSCAASGFTFYWYAMGWYRQAPGKERELVAAISTSDTSTYADSVKGRFTISRDNAKNTVYLQMNSLKPEDTAVYYCNRRQYYYYGTSRYNYWGQGTQVTVSS | low polyreactivity
27 | QVQLVESGGGLVQAGGSLRLSCAASGRNFLIYAMGWYRQAPRKERELVADISTSGGTTYYADSVKGRFTISRDNAKNTVYLQMNSLKPADTAVYYCAAGSHYWKYYSWGQGTQVTVSS | high polyreactivity
28 | QVQLVESGGGLVQAGGSLRLSCAASGSIFYAYYMGWYRQAPGKESELVAAINWSGDSTYYADSVKGRFTISRDNAKNTVYLQMNSLKPEDTAVYYCAAVSGSGDSGEYDYWGQGTQVTVSS | low polyreactivity
29 | QVQLVESGGGLVQAGGSLRLSCAASGFTFSSYAMGWYRQAPGKERELVAAITYRGGSTYYADSVKGRFTISRDNAKNTVYLQMNSLKPEDTAVYYCAARWGYRMYWGQGTQVTVSS | high polyreactivity
30 | QVQLVESGGGLVQAGGSLRLRCAASGGTFRYNAMGWYRQAPGKERELVAAISSSGGSTYYADSVKGRFTISRDNAKNTVYLQMNSLKPEDTAVYYCAAKRRRYVELDYWGQGTQVTVSS | high polyreactivity
31 | QVQLVESGGGLVQAGGSLRLSCAASGSNFRVYAMGWYSQAAGKERELVAAISRSGSITYYADSVKGRFTISRDNAKNTVYLQMNSLKPEDTAVYYCAARTYCRFTASTYYYWGQGTQVTVSS | high polyreactivity
32 | QVQLVESGGGLVQSGGSLRLSCAASGLTFRRNPMGRYRQAPGKERELVATITSGGSTNYADSVKGRFTISRDNAKNTVYLQMNSLKTEDTAVYYCAARTTYITPWAGRYFSWDYDYWGQGTQVTVSS | high polyreactivity
33 | QVQLVESGGGLVQAGGSLRLSCAASGFTIYYYAMAWYRQAPGKERELVAAISYSGGSTYYADSVKGRFTISRDNAKNTVYLQMNSLKPEDTAVYYCAVDWYGSYGYGGSQKSDYWGLGTQVTVSS | high polyreactivity
34 | QVQLVESGGCLVKAGCSLRLSCAASGRIFFVNAMGWYRPAPGKECELVAAISRGGSTNYADSVKGRFTISRDNAMNTVYLQMNILKPEDTEVYYCAAGYVRYPGVIDEYWGPGTQVTVSS | low polyreactivity
35 | QVQLVESGGCLVQAGGSLRLSCAASGRIYIGYAMGWYRQAPGKERELVAAITTGGRTSYAVSVKGRFTISRDNAKNTVYLQMNSLKPVDTAVYYCAKRKSYNFPTRRPYYRRYYYWGQGTQVTVSS | high polyreactivity
36 | QEQLQESGSGLVQAGGSLRLSCAASGNIFQDWFMGWYRQAPGKERELVAAISPGANTNYADSVKGRFTISRDNAKNSVYLQMNSLKPEDTAVYYCAAESLFDDYYGYWGQGTQVTVSS | low polyreactivity
37 | QVQLVESGGVLVQEGGSLRLSCDASGSIFECYAMGWYRQAPGKARELVAYITYNGGSTYYADSVKGRFTISRHNAKKTVYLQMNSLKPEDSAVYYCAAVYFVQVPDYYYASEYGYWGQGTQVTVSS | low polyreactivity
38 | QVQLVESGGGLVQAGGSLRLSCAASGSIFIGYAMGWYRQAPGKERELVAAITSGSITNYADSVKGRFTISRDNAKNTVYLQMNSLKPEDTAVYYCAADIYTYLGAYYIGYYWGQGTQVTVSS | low polyreactivity
39 | QVQLVESGGGLVQAGGSLRLSCAASGFTLYHYAMGWYRQAPGKERELVAAITTSGSRTYYADSVKGRFTISRDNAKNTVYLQMNSLKPEDTAVYYCNAVASSTEYDYWGQGTQVTVSS | high polyreactivity
40 | QVQLVESGGGLVQAGGSLRLSCAASGSTFYRYAKGRYRQPPGKERELVASITRNVGSTYYADSVKGRFTISRDNAKNTVYLQMKSVKPEDTAVYFCAAKSGSFVHGGYQTPVYGSDYWGQGSQVTVSS | high polyreactivity
41 | QVQLVESGGGLVQAGGSLRLSCAASGSIFNEYAMGCYRQAPGKERELVAAISTSGDITYYADSVKGRFTISRDNAKNTVDLQMNSLKPEDTAVYYCAAKYSLLRQYNRLDSWGQGTQVTVSS | low polyreactivity
42 | QVQLVESGGGLVQAGGSLRLSCAASGFTFPQYVMGGYRQAPGKERELVAAISSRGGRTYYADSVKGRFTISRDNAKNTVYLQMNSLIPEDTAVYYCAKGKRDSRAFDYWGQGTQVTVSS | high polyreactivity
43 | QVQLVESGGGLVQAGGSLRLSCAASGIIFKLYAMGWYRQAPGKEREFVATITKTCGRTYYADSVKGRFTISRDNAKNTVYLQMNSLKPEDTAVYYCAARRVNGKMYYWGQGTQVTVSS | high polyreactivity
